In patent US20210122824A1:

Experiments:
Assay in all cases: flow cytometry, HEK293F cells transiently expressing the target, 100 nM antibody, PE anti-human Fc; Mean (PE-A against FITC-A, GFP surrogate)
[1] = molecular target: human TIM3 expressed on HEK293F cells (human) (UniProt Q8TDQ0)
[2] = molecular target: human LAG3 expressed on HEK293F cells (human) (UniProt P18627)
[3] = molecular target: mouse PD-L1 expressed on HEK293F cells (mouse) (UniProt Q9EP73)
[4] = molecular target: human B7-H3 expressed on HEK293F cells (human) (UniProt Q5ZPR3)
[5] = molecular target: human PD-L1 expressed on cell surface (human) (UniProt Q9NZQ7)
[6] = molecular target: human CTLA4 expressed on HEK293F cells (human) (UniProt P16410)
[7] = molecular target: rhesus PD-L1 expressed on HEK293F cells (rhesus) (UniProt F6VEW6)
[8] = molecular target: human PD1 expressed on HEK293F cells (human) (UniProt Q15116)
human PD1 expressed on HEK293F cells (human), sequence (Q15116 25-288): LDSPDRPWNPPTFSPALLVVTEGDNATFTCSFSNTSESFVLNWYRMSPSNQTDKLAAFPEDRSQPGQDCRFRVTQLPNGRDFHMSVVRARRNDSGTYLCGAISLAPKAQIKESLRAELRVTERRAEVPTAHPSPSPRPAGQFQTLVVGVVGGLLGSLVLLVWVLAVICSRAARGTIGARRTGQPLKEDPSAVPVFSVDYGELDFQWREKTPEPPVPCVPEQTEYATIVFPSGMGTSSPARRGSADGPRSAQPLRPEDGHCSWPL

human CTLA4 expressed on HEK293F cells (human), sequence (P16410 36-223): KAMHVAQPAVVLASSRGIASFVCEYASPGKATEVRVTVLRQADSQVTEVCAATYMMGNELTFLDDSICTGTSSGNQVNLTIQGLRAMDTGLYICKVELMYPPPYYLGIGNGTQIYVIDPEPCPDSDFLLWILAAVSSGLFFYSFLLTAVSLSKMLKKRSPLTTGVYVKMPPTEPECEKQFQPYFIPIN
mouse PD-L1 expressed on HEK293F cells (mouse), sequence (Q9EP73 19-290): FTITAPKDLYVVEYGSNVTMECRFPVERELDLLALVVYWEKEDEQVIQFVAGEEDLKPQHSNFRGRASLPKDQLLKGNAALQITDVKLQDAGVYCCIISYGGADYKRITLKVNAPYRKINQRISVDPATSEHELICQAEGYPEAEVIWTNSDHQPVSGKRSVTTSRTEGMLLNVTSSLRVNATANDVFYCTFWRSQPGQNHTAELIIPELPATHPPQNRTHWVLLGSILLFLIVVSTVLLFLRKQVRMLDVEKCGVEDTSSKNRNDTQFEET
human LAG3 expressed on HEK293F cells (human), sequence (P18627 23-525): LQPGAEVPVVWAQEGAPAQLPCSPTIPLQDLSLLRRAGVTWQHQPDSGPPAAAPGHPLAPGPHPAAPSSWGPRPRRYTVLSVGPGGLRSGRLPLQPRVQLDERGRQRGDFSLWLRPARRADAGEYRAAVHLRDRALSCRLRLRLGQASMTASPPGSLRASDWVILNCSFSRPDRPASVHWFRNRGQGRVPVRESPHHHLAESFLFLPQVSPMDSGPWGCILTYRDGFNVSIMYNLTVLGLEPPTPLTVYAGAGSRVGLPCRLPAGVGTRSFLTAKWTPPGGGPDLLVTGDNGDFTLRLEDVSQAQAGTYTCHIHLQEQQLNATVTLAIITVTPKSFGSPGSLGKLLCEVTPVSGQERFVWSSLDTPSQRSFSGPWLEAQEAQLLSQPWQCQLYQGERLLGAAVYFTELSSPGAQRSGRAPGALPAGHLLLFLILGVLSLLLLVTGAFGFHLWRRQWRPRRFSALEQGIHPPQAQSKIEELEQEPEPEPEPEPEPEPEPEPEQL
human B7-H3 expressed on HEK293F cells (human), sequence (Q5ZPR3 29-534): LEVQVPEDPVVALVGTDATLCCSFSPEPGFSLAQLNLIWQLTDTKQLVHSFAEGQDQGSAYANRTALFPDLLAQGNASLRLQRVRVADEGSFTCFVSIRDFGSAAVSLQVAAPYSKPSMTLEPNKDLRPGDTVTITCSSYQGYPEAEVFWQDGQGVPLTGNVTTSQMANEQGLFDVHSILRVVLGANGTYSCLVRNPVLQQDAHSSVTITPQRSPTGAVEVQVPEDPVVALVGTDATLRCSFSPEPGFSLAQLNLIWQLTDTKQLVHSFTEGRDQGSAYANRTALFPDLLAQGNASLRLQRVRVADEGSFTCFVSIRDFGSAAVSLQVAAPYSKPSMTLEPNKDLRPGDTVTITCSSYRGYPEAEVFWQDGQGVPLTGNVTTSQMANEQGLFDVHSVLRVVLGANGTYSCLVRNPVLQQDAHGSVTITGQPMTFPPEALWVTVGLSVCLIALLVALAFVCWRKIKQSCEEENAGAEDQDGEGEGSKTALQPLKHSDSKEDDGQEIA
human PD-L1 expressed on cell surface (human), sequence (Q9NZQ7 19-290): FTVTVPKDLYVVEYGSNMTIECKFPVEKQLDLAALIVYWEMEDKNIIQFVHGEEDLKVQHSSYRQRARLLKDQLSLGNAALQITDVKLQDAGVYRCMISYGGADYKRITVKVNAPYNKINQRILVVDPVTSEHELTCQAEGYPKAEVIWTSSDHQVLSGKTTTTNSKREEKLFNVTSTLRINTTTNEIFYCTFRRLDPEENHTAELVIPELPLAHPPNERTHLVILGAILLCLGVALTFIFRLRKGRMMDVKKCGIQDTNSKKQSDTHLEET

Isotype control (antibody)
Mean [1]: 2280 | Mean [2]: 2440 | Mean [3]: 3030 | Mean [4]: 2690 | Mean [5]: 2470 | Mean [6]: 2480 | Mean [7]: 2520 | Mean [8]: 3050
